Where two headings read alike, the source gives them in different places.
T1: mouse CD276 expressed on the cell surface (CHO-msCD276) (Mus musculus, UniProt Q8VE98)
T1 construct: expressed in transfected cells; host or cells: CHO cells
T1 sequence (Q8VE98 29-316): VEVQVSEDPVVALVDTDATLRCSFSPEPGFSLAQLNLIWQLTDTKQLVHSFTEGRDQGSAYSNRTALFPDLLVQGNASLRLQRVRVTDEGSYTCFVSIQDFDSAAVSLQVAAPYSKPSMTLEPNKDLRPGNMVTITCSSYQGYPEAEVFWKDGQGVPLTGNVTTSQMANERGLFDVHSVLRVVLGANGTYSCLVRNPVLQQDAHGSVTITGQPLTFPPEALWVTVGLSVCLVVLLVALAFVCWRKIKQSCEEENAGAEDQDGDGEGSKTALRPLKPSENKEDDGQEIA

T2: human CD276 Ecto-domain (Homo sapiens, UniProt Q5ZPR3)
T2 construct: The human CD276 soluble extracellular domain was covalently immobilized onto a sensor chip (CM5)
T2 sequence (Q5ZPR3 29-466 limits assumed): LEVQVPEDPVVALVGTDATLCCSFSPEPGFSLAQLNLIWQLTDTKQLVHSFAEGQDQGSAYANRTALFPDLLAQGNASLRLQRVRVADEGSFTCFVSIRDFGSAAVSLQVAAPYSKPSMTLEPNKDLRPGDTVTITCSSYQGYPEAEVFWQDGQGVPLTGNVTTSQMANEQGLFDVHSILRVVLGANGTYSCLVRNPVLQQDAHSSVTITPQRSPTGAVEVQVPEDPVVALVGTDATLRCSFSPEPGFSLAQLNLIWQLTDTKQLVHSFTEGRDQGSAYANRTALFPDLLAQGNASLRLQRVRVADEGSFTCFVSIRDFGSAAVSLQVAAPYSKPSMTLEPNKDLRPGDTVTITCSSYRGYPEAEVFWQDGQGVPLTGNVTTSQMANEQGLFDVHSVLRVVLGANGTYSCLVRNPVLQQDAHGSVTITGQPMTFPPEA

T3: human CD276 expressed on the cell surface (CHO-huCD276) (Homo sapiens, UniProt Q5ZPR3)
T3 construct: expressed in transfected cells; host or cells: CHO cells
T3 sequence (Q5ZPR3 29-534): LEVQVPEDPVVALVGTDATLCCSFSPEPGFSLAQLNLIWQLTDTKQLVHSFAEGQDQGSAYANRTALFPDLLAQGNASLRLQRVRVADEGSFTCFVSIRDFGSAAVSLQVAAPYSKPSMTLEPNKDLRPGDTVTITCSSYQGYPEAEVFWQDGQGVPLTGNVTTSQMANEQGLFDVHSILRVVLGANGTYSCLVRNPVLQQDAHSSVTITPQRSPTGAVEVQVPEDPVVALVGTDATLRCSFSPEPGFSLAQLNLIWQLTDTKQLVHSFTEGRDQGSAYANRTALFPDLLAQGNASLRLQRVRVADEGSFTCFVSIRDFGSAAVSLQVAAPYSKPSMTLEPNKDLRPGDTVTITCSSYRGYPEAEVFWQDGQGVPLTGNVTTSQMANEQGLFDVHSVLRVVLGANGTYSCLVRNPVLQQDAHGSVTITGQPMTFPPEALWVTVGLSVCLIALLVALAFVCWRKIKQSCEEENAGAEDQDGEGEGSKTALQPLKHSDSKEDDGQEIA

B1: m8524: anti-CD276 antibody clone, heavy chain comprising SEQ ID NO: 26 and light chain comprising SEQ ID NO: 27 (antibody, V domains shown)
VH: QVQLQQSGAEVKKPGSSVKVSCKASGGTFSSYAISWVRQAPGQGLEWMGGIIPILGIANYAQKFQGRVTITADESTSTAYMELSSLRSEDTAVYYCARGGSGSYHMDVWGKGTTVTVSS
VL: EIVLTQSPATLSLSPGERATLSCRASQSVSSYLAWYQQKPGQAPRLLIYDASNRATGIPARFSGSGSGTDFTLTISSLEPEDFAVYYCQQRSNWPPRITFGQGTRLEIK
B2: m8524-ADC: m8524 antibody conjugated to MMAE via a linking moiety; n is 2, 4, 6, or 8 (conjugate)
VH: B1 VH
VL: B1 VL

Legend:
[1] = system: mouse CD276-AP fusion protein; test: ELISA binding assay, mouse CD276; settings: scFv-Fc fusion protein in culture medium, serially diluted; CD276-AP coated at 2 μg/ml; FIG. 1B
Experimental: (§1) The scFv-encoding inserts of the unique clones were digested with SfiI and ligated into modified pSecTag bearing the same set of SfiI sites and Fc-Avi tag for soluble expression. These constructs were transfected into 293T cells for expression following the manufacturer's protocol. After 72 hr of growth, the scFv-Fc fusion proteins in the culture medium were used for the ELISA binding assay.
(§2) 50 μl of the diluted human (FIG. 1A) or mouse (FIG. 1B) CD276-AP fusion protein in PBS at 2 μg/ml was coated in a 96-well plate at 4° C. overnight. Transiently expressed scFv-Fc fusion protein in the culture medium was serially diluted and added into the target protein coated wells. After washing, a 1:3000 diluted horseradish peroxidase (HRP) conjugated goat anti-human IgG antibody was added for 1 hr at RT. After washing, 3, 3, 5, 5′-Tetramethylbenzidine (TMB) substrate was added, and the optical density (O.D.) was read at 450 nm.

[2] = target: T1, mouse CD276 expressed on the cell surface (CHO-msCD276); test: Flow cytometry binding to CHO cells expressing mouse CD276; format: cell-based; settings: scFv-Fc, 1 μg/100 μl, FIG. 4
Experimental: (§3) Chinese hamster ovary (CHO) cells were untransduced or transduced to express mouse CD276 or human CD276. The cells were cultured with 1 μg/100 μl of the anti-CD276 scFv-Fc m8524 (m276) (SEQ ID NOs: 26 and 27) (primary antibody) and fluorescein isothiocyanate (FITC) Gt anti-human antibody (H+L) (as a secondary antibody). The binding of the anti-CD276 scFv-Fc m8524 (m276) to mouse or human CD276 expressed on the cell surface was measured by flow cytometry.

HEK 293 cells (293) = test: Cell viability of untransduced HEK 293 cells
Experimental: (§4) HEK 293 cells (293) or HEK 293 cells transduced with CD276 (293/CD276) were treated with MMAE alone, m8524 (m276) (SEQ ID NOs: 26 and 27) antibody alone, m825 (irrelevant control antibody)-ADC, or m8524-ADC. The drug of the ADCs was MMAE.

human CD276 Ecto-domain = target: T2, human CD276 Ecto-domain; test: Affinity determination by surface plasmon resonance (Biacore X100); format: binding; settings: scFv m8524; immobilized human CD276 soluble extracellular domain; 1:1 Langmuir fit; 25° C; FIG. 2
Experimental: Binding affinities of human anti-CD276 scFv m8524 to human CD276 Ecto-domain were analyzed by surface plasmon resonance technology using a Biacore X100 instrument (GE healthcare). The human CD276 soluble extracellular domain was covalently immobilized onto a sensor chip (CM5) using carbodiimide coupling chemistry. A control reference surface was prepared for nonspecific binding and refractive index changes. For analysis of the kinetics of interactions, varying concentrations of […] were injected at a flow rate of […] using running buffer containing 10 mM HEPES, 150 mM NaCl, 3 mM EDTA, and 0.05% Surfactant P-20 (pH 7.4). The association and dissociation phase data were fitted simultaneously to a 1:1 Langumir global model, using the nonlinear data analysis program BIAevaluation 3.2. All of the experiments were done at 25° C. The affinity of the antibody m8524 (m276) (comprising a heavy chain comprising SEQ ID NO: 26 and a light chain comprising SEQ ID NO: 27) is shown in FIG. 2.

293/CD276 cells = test: Cell viability of HEK 293 cells transduced with CD276
Experimental: as §4

[3] = system: human CD276-AP fusion protein; test: ELISA binding assay, human CD276; settings: scFv-Fc fusion protein in culture medium, serially diluted; CD276-AP coated at 2 μg/ml; FIG. 1A
Experimental: as §1, §2

[4] = target: T3, human CD276 expressed on the cell surface (CHO-huCD276); test: Flow cytometry binding to CHO cells expressing human CD276; format: cell-based; settings: scFv-Fc, 1 μg/100 μl, FIG. 4
Experimental: as §3

HCT116 cells = test: In vitro cell viability, HCT116; format: cell-based, human; settings: various concentrations (nM), FIG. 13
[5] = system: HT29 human colorectal adenocarcinoma xenografts; test: HT29 human colorectal adenocarcinoma xenografts in athymic nude mice; format: in vivo; settings: 1, 3 or 10 mpk twice a week for three weeks; FIG. 10
Experimental: Athymic nude mice bearing HT29 human colorectal adenocarcinoma xenografts were treated with control (vehicle), m8524 (m276) (SEQ ID NOs: 26 and 27) alone (10 mg/kg (mpk)), or m8524 (m276)-MMAE ADCs at various dosages (1 mpk, 3 mpk, or 10 mpk) twice a week for three weeks. Tumor volume was measured at various time points after administration.

OVCAR3 cells = test: In vitro cell viability, OVCAR3; format: cell-based, human; settings: various concentrations (nM), FIG. 13
[6] = system: HCT-116 human colon cancer xenografts; test: HCT-116 human colon cancer xenografts in athymic nude mice; format: in vivo; settings: 1, 3, 10 or 30 mpk twice a week for three weeks; FIGS. 8 and 9
Experimental: Athymic nude mice bearing HCT-116 human colon cancer xenografts were treated with control (vehicle), m8524 (m276) (SEQ ID NOs: 26 and 27) alone (30 mg/kg (mpk)), or m8524 (m276)-MMAE ADCs at various dosages (1 mpk, 3 mpk, 10 mpk, or 30 mpk) twice a week for three weeks. Tumor volume was measured at various time points after administration.

[7] = system: KM12 human colon carcinoma xenografts; test: KM12 human colon carcinoma xenografts in athymic nude mice; format: in vivo; settings: 1, 3 or 10 mpk twice weekly for 3 weeks, 2 day break, FIG. 11
Experimental: Athymic nude mice bearing KM12 human colon carcinoma xenografts were treated with control (vehicle), m8524 (m276) (SEQ ID NOs: 26 and 27) alone (10 mg/kg (mpk)), or m8524 (m276)-MMAE ADCs at various dosages (1 mpk, 3 mpk, or 10 mpk) twice weekly for 3 weeks, followed by a 2 day break, followed by another dose twice weekly for 3 weeks. Tumor volume was measured at various time points after administration.

HT29 cells = test: In vitro cell viability, HT29; format: cell-based, human; settings: various concentrations (nM), FIG. 13
[8] = system: OVCAR3 human ovarian xenografts; test: OVCAR3 human ovarian xenografts in SCID mice; format: in vivo; settings: 1, 3 or 10 mpk on days 1, 4, 8 and 11; FIGS. 12 and 15
Experimental: SCID mice bearing OVCAR3 human ovarian xenografts were treated with control (vehicle), m8524 (m276) (SEQ ID NOs: 26 and 27) alone (10 mg/kg (mpk)), MMAE alone (0.2 mpk), or m8524 (m276)-MMAE ADCs at various dosages (1 mpk, 3 mpk, or 10 mpk) on days 1, 4, 8 and 11. Tumor volume was measured at various time points after administration. The results are shown in FIG. 12 (up to Day 11) and FIG. 15 (up to Day 53).

[9] = system: MDA-MB231 human breast cancer cells (mammary fat pad); test: MDA-MB231 human breast cancer orthotopic xenografts in athymic nude mice; format: in vivo; settings: 1 mpk or 10 mpk twice weekly for 3 weeks; FIG. 16
Experimental: MDA-MB231 human breast cancer cells were implanted in the mammary fat pad of athymic nude mice (orthotopic model). Tumor-bearing mice were treated with control (vehicle), m8524 (m276) (SEQ ID NOs: 26 and 27) alone (10 mg/kg (mpk)), or m8524 (m276)-MMAE ADCs (at a dose of 1 mpk or 10 mpk) twice weekly for 3 weeks. Tumor volume was measured at various time points after administration.

Row | Molecule | binding to mouse CD276 (OD at 450 nm, ELISA) [1] | binding to mouse CD276 expressed on the cell surface (flow cytometry) [2] | cytotoxicity (cell viability, % of control) (HEK 293 cells (293)) | Kd (human CD276 Ecto-domain) [pM] | cytotoxicity (cell viability, % of control) (293/CD276 cells) | binding to human CD276 (OD at 450 nm, ELISA) [3] | binding to human CD276 expressed on the cell surface (flow cytometry) [4] | cell viability (HCT116 cells) | tumor volume as compared to control or m8524 (m276) alone [5] | cell viability (OVCAR3 cells) | cytotoxicity (cell viability, % of control) (HEK 293 cells (293); 293 cells (low CD276), various concentrations (nM), FIG. 7) | tumor volume as compared to control or m8524 (m276) alone [6] | cytotoxicity (cell viability, % of control) (293/CD276 cells; 293/CD276 cells (high CD276), various concentrations (nM), FIG. 7) | selectivity for CD276-expressing cells (293/CD276 cells; 293/CD276 versus 293 cells, FIG. 7) | tumor volume as compared to control or m8524 (m276) alone [7] | cell viability (HT29 cells) | tumor volume as compared to control, MMAE alone, or m8524 (m276) alone [8] | tumor volume as compared to control or m8524 (m276) alone [9]
1 | B1 | bound | bound | resistant to killing | 49 | resistant to killing | bound | bound | – | – | – | – | – | – | – | – | – | – | –
2 | B2 | – | – | – | – | – | – | – | decreased | decreased | decreased | selectively cytotoxic | decreased | selectively cytotoxic | toxicity corresponding to CD276 expression levels | decreased | decreased | decreased | decreased

From US11851498B2, “Anti-CD276 antibodies (B7H3)” (THE UNITED STATES OF AMERICA, as represented by THE …, priority 2014, dated 2023)
